In patent US10702610B2, “Method of making sulfur-containing polymers from hexahydrotriazine and dithiol precursors” (International Business Machines Corporation, priority 2015, dated 2020):
No end group written: not given here.

Columns and labels:
[1] = system: human embryonic kidney cells from cell line HEK293; assay: incubation with HEK293 cells, cell viability; type: cell-based
Protocol: (§1) To investigate toxicity of the polymer-peptide product, the polymer-peptide product was dissolved in a simulated physiological environment comprising 10% prenatal bovine serum in a phosphate-buffered saline solution. […] The polymer-peptide products was also incubated with human embryonic kidney cells from cell line HEK293 for 24 hours, after which more than 90% cell viability was observed.

[2] = dissolution in simulated physiological environment (10% prenatal bovine serum in phosphate-buffered saline), precipitation/aggregation; type: physicochemical; details: over 24 hours
Protocol: as §1

hemolysis = type: cell-based; details: doses up to 1000 mg/L
Protocol: as §1

Substance	cell viability ([1]; HEK293, dose of 50 mg/L)	precipitation or aggregation in solution [2]	cell viability ([1]; HEK293, 200 mg/L, similar incubation period)	cell viability ([1]; HEK293, incubated 24 hours, dose not stated)	hemolysis (hemolysis)
peptide: thiol-containing amphiphilic alpha-helical peptide SEQ. ID: NO: 1-NH2 (CLLKKLLKKC-NH2; cysteine pairing not given here) [reference compound]	below 70%				
polymer-peptide product: peptide SEQ. ID: NO: 1-NH2 attached to water-soluble polythioaminal polymer 4a (CLLKKLLKKC-NH2; cysteine pairing not given here; also: attached to polythioaminal polymer 4a)		No precipitation or aggregation was observed	more than 80%	more than 90%	No hemolysis was observed
